Patent US20190062383A1 (Janssen / Centocor, published 2019)

Target: KV1N2 (OsK1-Fc fusion) (Orthochirus scrobiculosus)
Test: FACS competition with agitoxin2-cys-TAMRA

B1: hKv1.3 E3 loop/hKv1.5 chimera (receptor)
chain: MEIALVPLENGGAMTVRGGDEARAGCGQATGGELQCPPTAGLSDGPKEPAPKGRGAQRDADSGVRPLPPLPDPGVRPLPPLPEELPRPRRPPPEDEEEEGDPGLGTVEDQALGTASLHHQRVHINISGLRFETQLGTLAQFPNTLLGDPAKRLRYFDPLRNEYFFDRNRPSFDGILYYYQSGGRLRRPVNVSLDVFADEIRFYQLGDEAMERFREDEGFIKEEEKPLPRNEFQRQVWLIFEYPESSGSARAIAIVSVLVILISIITFCLETLPEFRDERELLRHPPAPHQPPAPAPGANGSGVMAPPSGPTVAPLLPRTLADPFFIVETTCVIWFTFELLVRFFACPSKAGFSRNIMNIIDVVAIFPYFITLGTELAEQQPGGGGGGQNGQQAMSLAILRVIRLVRVFRIFKLSRHSKGLQILGKTLQASMRELGLLIFFLFIGVILFSSAVYFAEADDPTSGFSSIPDAFWWAVVTMTTVGYGDMHPVTIGGKIVGSLCAIAGVLTIALPVPVIVSNFNYFYHRETDHEEPAVLKEEQGTQSQGPGLDRGVQRKVSGSRGSFCKAGGTLENADSARRGSCPLEKCNVKAKSNVDLRRSLYALCLDTSRETDL
binding result: binds
